Source: patent publication US6342519B2, “Oxetanone derivatives” (2 Pro Chemical, priority 1999, dated 2002)

Tests used:
[1] = Oil binding assay with olive oil and food-coloured water; type: physicochemical; conditions: for oil binding, observation: olive oil/substance 1.5/1 ratio by weight, then 4 mL of water with food coloring
Procedure: Oil binding assay were performed using each of Compounds A and B using the procedures essentially as follows.
Six controls were obtained by adding Star Brand Olive Oil (extra virgin light colored olive oil) to 4 or 7 mL sample bottles, which were photographed at a distance of 10 inches by using an IZONE POLAROID camera as follows.
For comparison with Control 4 (oil/chitosan 1.5/1 ratio) each of Compounds A and B were mixed with oil in the same ratio(oil/compound 1.5/1 ratio, green food coloring was added to the aqueous portion of the compound A sample bottle and blue food coloring was added to the aqueous portion of the compound B sample bottle).
For comparison with Control 6 (oil/chitosan 8:1 ratio and 1 mL of aqueous solution with food coloring), compound B was added to 8 times its weight of oil and stirred to a uniform consistency. The 1 mL of water was added and 5 drops of red food coloring were added.

[2] = molecular target: T1, Pork Pancreas Lipase [EC 3.1.1.3] (Sus scrofa, UniProt P00591); assay: Lipase inhibition assay, Lipase #2 solution (Aldrich Pork Pancreas Lipase); type: biochemical; conditions: Lipase #2 (pork pancreas lipase), 20 mL of compound stock solution in 0.2 N HCl, Sigma Lipase Substrate, pH about 8, 30 minutes, 35-37° C., titration with 0.025 N NaOH, two runs
T1 construct: purchased Aldrich Product No. 32313; host or cells: pork pancreas
T1 sequence (P00591 1-450): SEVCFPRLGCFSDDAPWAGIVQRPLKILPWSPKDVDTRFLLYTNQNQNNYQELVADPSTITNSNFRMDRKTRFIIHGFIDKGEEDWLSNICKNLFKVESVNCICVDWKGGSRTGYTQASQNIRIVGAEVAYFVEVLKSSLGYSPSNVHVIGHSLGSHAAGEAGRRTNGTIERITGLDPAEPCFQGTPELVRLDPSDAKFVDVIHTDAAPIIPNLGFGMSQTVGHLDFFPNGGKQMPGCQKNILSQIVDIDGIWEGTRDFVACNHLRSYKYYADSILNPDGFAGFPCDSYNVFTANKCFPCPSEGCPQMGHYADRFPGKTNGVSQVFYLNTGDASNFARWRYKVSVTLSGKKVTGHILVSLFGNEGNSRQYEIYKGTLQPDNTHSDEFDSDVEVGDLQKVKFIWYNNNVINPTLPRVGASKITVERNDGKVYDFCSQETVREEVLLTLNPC
Procedure: (§1) Lipase inhibition assays were performed essentially as follows using each of Compounds A and B.
(§2) A 1 L stock solution of 1N NaOH was made and a 500 mL stock solution of 0.025 N NaOH was made by diluting a portion of the stock 1N solution. Also a stock solution of 0.2 N HCl was made. A 100 mL TRIZMA solution (from Aldrich Lipase Assay Kit Cat. No. 800B) was diluted with 100 mL of denatured EtOH and 300 mL of water to form a 500 mL TEW solution. Compound A from Example 6 (100 mg) was added to a portion of the 0.2 N HCl stock solution and diluted to a final volume of 300 mL with the same HCl stock solution to form a compound A stock solution. […]
(§3) In a 500 mL beaker equipped with a heat source and a magnetic stirrer was added 100 mL of distilled water, 10 mL of TEW solution, 10 mL of Sigma Lipase Substrate and a 20 mL sample (sample control was 20 mL of the stock 0.2 N HCl solution, sample A was 20 mL of the compound A stock solution, and sample B was 20 mL of the compound B stock solution). The pH was adjusted to about 8 with 1N NaOH using a pH meter, whose reading was noted and recorded as a baseline reading after the pH adjustment. […] The volume of NaOH solution used to return to the baseline pH reading was noted and recorded. […]

human lipase = molecular target: T2, human lipase (Homo sapiens, UniProt P16233); assay: Lipase inhibition assay, Lipase #1 solution (Aldrich Lipase PS Standard); type: biochemical; conditions: Lipase #1 (human lipase), 20 mL of compound stock solution in 0.2 N HCl, Sigma Lipase Substrate, pH about 8, 30 minutes, 35-37° C., titration with 0.025 N NaOH, two runs
T2 construct: purchased Aldrich Product No. 8054
T2 sequence (P16233 17-465): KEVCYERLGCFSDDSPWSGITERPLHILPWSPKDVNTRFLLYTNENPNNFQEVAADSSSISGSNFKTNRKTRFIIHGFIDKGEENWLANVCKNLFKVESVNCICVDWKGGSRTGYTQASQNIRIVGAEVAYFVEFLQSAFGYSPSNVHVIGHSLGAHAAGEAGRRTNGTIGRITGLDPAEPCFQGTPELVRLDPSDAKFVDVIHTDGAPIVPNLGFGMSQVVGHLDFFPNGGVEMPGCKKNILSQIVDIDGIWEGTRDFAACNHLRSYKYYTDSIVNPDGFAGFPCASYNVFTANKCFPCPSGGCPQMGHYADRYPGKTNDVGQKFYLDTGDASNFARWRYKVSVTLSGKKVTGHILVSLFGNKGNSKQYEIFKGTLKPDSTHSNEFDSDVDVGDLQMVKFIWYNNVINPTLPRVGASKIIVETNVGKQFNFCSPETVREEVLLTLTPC
Procedure: as §1, §2, §3

[3] = tested on: absorption of dietary fat; conditions: 120 mg dose taken before, or up to one hour after, a fat-containing meal; average person; cited from earlier work

Compound | oil binding, observation [1] | percent inhibition with respect to the control [2] | percent inhibition with respect to the control (human lipase) | water absorbed after binding oil ([1]; olive oil/compound 8:1, 1 mL of water) | tightness of oil binding compared with chitosan and compound A ([1]; olive oil/substance 1.5/1 ratio) | oil binding and water uptake, observation ([1]; olive oil/substance 8:1 ratio by weight, then 1 mL of water and 5 drops of red food coloring) | share of the fat eaten at a given meal that is not absorbed [3]
2S, 3S, 4S [2-{(hexanoic acid modified chitosan 6-hexanoylamido}-4-methylvaleryloxy]-2-hexyl-hexadecanoic 1,3-lactone [Compound A] | oil is bound tightly at the bottom of the bottle and there is substantially no floating oil | about 50% | about 50% | – | – | – | –
4-[{(hexanoic acid modified chitosan 6-hexanoyloxy}-2-hexyl-hexadecanoic 1,3-lactone [Compound B] | oil is bound tightly at the bottom of the bottle and there is substantially no floating oil | about 50% | about 50% | at least its weight in water | appeared to perhaps bind the oil more tightly than either chitosan or compound A | uniformly absorbed the 1 mL of aqueous food coloring solution to form a homogenous layer which was present even after 24 hours | –
CCCCCCCCCCC[C@@H](C[C@@H]1OC(=O)[C@H]1CCCCCC)OC(=O)[C@H](CC(C)C)NC=O [Orlistat, (2S,3S,5S)-5-[(S)-2-formamido-4-methyl-valeryloxy]-2-hexyl-3-hydroxy-hexadecanoic 1,3 acid lactone] | – | – | – | – | – | – | up to one-third
